Assay results: US8426166B2, “Long-acting polypeptides and methods of producing same” (Prolor Biotech Inc., dated 2013)

Target: T1, human IFN receptor (human, UniProt P17181)
T1 sequence 1: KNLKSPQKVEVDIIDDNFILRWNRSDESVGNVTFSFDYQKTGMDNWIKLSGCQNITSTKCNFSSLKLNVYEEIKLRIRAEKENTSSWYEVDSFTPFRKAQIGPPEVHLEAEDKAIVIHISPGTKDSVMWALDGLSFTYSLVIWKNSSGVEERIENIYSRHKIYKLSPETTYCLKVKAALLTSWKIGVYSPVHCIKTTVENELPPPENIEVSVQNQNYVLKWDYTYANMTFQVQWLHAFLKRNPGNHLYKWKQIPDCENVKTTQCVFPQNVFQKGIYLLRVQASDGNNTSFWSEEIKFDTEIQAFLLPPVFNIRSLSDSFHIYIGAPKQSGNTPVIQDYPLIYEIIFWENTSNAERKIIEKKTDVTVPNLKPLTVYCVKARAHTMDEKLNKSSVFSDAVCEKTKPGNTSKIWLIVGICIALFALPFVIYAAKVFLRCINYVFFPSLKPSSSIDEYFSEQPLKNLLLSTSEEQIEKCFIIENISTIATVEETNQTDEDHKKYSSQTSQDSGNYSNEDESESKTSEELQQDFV
T1 sequence 2: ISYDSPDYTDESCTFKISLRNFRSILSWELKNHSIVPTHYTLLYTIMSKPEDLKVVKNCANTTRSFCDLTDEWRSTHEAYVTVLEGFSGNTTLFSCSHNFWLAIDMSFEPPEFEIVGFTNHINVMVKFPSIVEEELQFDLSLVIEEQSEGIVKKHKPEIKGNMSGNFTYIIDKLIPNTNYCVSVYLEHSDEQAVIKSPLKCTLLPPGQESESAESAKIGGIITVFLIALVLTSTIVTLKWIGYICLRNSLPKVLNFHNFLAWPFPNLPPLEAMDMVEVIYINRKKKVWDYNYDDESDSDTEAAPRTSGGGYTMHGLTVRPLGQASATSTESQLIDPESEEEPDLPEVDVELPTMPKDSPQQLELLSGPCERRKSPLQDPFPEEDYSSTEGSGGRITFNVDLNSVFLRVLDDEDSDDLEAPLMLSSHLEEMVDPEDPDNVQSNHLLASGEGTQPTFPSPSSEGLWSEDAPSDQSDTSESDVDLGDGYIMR
Experiment: cell-based or functional assay

IC50 pg/ml (anti-proliferation, Daudi cells) [pg/mL]	Specific Activity IU/mg x 10^8, Anti-viral (viral cytopathic effect bioassay, A549 cells challenged with virus) [IU/mg]	Binder	Specific Activity IU/mg x 10^8, Anti-proliferation (Daudi cells, 72 hours, viable cells) [IU/mg]
318		Intl. Standard (IFN-β reference standard calibrated in International Units, National Institute of Allergy and Infectious Diseases (NIH)) (ligand) MSYNLLGFLQRSSNFQCQKLLWQLNGRLEYCLKDRMNFDIPEEIKQLQQFQKEDAALTIYEMLQNIFAIFRQDSSSTGWNETIVENLLANVYHQINHLKTVLEEKLEKEDFTRGKLMSSLHLKRYYGRILHYLKAKEYSHCAWTIVRVEILRNFYFINRLTGYLRN	
251	3.9e+08	Human Interferon-β 1a-MOD-9010 (ligand) MSYNLLGFLQRSSNFQCQKLLWQLNGRLEYCLKDRMNFDIPEEIKQLQQFQKEDAALTIYEMLQNIFAIFRQDSSSTGWNETIVENLLANVYHQINHLKTVLEEKLEKEDFTRGKLMSSLHLKRYYGRILHYLKAKEYSHCAWTIVRVEILRNFYFINRLTGYLRN	
264	4e+08	MOD-9011 (IFNβ-ctp) (ligand) MSYNLLGFLQRSSNFQCQKLLWQLNGRLEYCLKDRMNFDIPEEIKQLQQFQKEDAALTIYEMLQNIFAIFRQDSSSTGWNETIVENLLANVYHQINHLKTVLEEKLEKEDFTRGKLMSSLHLKRYYGRILHYLKAKEYSHCAWTIVRVEILRNFYFINRLTGYLRNSSSSKAPPPSLPSPSRLPGPSDTPILPQ	2.41e+08
	4e+08	MOD-9012 (IFNβ-ctpx2) (ligand) MSYNLLGFLQRSSNFQCQKLLWQLNGRLEYCLKDRMNFDIPEEIKQLQQFQKEDAALTIYEMLQNIFAIFRQDSSSTGWNETIVENLLANVYHQINHLKTVLEEKLEKEDFTRGKLMSSLHLKRYYGRILHYLKAKEYSHCAWTIVRVEILRNFYFINRLTGYLRNSSSSKAPPPSLPSPSRLPGPSDTPILPQSSSSKAPPPSLPSPSRLPGPSDTPILPQ	
323	3.7e+08	MOD-9016 (ctp-IFNβ-ctp) (ligand) SSSSKAPPPSLPSPSRLPGPSDTPILPQMSYNLLGFLQRSSNFQCQKLLWQLNGRLEYCLKDRMNFDIPEEIKQLQQFQKEDAALTIYEMLQNIFAIFRQDSSSTGWNETIVENLLANVYHQINHLKTVLEEKLEKEDFTRGKLMSSLHLKRYYGRILHYLKAKEYSHCAWTIVRVEILRNFYFINRLTGYLRNSSSSKAPPPSLPSPSRLPGPSDTPILPQ	1.97e+08
